Measurements reported in US20120302492A1.

Biological target: GPIIb/IIIa protein (UniProt P08514)
Experiment: equal mix of wt and RGD1 phage bound to GPIIb/IIIa-coated plate, eluted, phagemid DNA analysis

B1: phage wtCD59 (CD59-gIII fusion protein displayed on phage) (protein, human, UniProt P13987 26-102, looked up, not shown: small tags and cut ends; large carriers)
chain: LQCYNCPNPTADCKTAVNCSSDFDACLITKAGLQVYNKCWKFEHCNFNDVTTRLRENELTYYCCKKDLCNFNEQLEN
- clones recovered among 12 picked after binding of an equal phage mix: 1 clones of 12
